Test results published in PMC6511404.
Read-outs that look alike come from different tables or passages of the source.

Experiments:
[1] = target: E. coli enolase, detagged (His tag removed by thrombin) (E. coli); assay: crystal structure
[2] = target: E. coli enolase, detagged (His tag removed by thrombin) (E. coli); assay: crystal structure; remark: listed apart in the source

E. coli enolase, detagged (His tag removed by thrombin) (enzyme), sequence (A1AEW7 2-432): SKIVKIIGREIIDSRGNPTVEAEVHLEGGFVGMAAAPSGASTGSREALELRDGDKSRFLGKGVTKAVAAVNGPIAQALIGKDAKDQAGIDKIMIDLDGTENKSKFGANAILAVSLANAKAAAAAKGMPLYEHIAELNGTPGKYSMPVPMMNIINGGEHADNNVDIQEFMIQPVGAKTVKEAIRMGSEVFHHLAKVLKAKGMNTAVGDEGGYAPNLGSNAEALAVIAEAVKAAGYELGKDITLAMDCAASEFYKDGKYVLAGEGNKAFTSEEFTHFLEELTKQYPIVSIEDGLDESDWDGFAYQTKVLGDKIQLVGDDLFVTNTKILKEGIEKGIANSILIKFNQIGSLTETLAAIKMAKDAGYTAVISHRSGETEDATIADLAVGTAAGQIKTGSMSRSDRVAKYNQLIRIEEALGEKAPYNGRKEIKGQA

Question: How did the stoichiometry N [1] turn out when “E. coli enolase, detagged (His tag removed by thrombin) (enzyme)” was run?
Answer: 2

Question: And the stoichiometry N [2]?
Answer: 6
